From US20210163535A1 (KYUNGPOOK NATIONAL UNIVERSITY INDUSTRY ACADEMIC COOPERATION …, published 2021) come the findings set out here.

The target in the assay is T1, wild-type CD44 (UniProt P16070-12 21-361, limits assumed).
T1 construct: The isoform is not defined beyond 'wild-type'
Put plainly: pull-down of cell lysate with biotinylated peptide on avidin beads, Western blot. Background: In western blotting, separated proteins are transferred to a membrane and probed.

No end group written: not given here.

T1 sequence (P16070 other isoform, or with tags, fused parts or gaps limits assumed): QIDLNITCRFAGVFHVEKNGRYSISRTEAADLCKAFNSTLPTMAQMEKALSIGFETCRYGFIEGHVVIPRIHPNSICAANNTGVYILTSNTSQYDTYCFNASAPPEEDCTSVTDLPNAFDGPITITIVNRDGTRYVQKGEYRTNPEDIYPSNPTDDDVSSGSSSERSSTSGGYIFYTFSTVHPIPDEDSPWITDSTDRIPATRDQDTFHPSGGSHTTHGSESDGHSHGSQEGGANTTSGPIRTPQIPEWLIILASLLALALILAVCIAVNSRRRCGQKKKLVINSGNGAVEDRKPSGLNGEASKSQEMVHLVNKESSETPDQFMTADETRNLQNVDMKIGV

B1: v6Pep-2 (peptide)
peptide: CNEWQLKSC
modifications: cysteine pairing not given here; also: FITC-labelled or biotinylated, site of label not given here
notes: Selected from a CX7C phage display library; also called clone-2; FITC-v6Pep-2
Turning to B1, the binding result was “no binding”.

B2: v6Pep-1 (peptide)
peptide: CNLNTIDTC
modifications: cysteine pairing not given here; also: FITC-labelled or biotinylated, site of label not given here
notes: Selected from a CX7C phage display library; also called clone-1; FITC-v6Pep-1
Take B2: the binding result is reported as “no binding”.
